The values below are quoted from earlier work in publication PMC8062757.

The data set deals with Myostatin (Gallus gallus) (UniProt O42220).
UniProt O42220, sequence (O42220 267-375): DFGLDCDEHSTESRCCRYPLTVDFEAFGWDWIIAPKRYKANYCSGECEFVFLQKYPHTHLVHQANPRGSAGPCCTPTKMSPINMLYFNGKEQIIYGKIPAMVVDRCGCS

What is called Kd is the equilibrium constant for the complex coming apart. As for Follistatin (from UniProt Q90844), the Kd was 0.584 nM.
